# Assay results as given in the supplement of paper PMC7125110.
# ± gives the standard error. Fewer inactive variants are shown than the library holds.
# B1: glmS ribozyme (parent)
# chain: AUAAAAGCGCCAGAACUACAGAAAUGUAGUUGACGAGGAGGAGGUUUAUCGAAUUUUCGGCGGAUGCCUCCAAA
# Experiments:
# Conditions in all cases: with glucosamine-6-phosphate
# [1] = variants of: B1; test: self-cleavage kobs at 160 uM GlcN6P; higher = faster cleavage; RNA array
# Summary of the method: (§1)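 Ribozyme variants carrying barcodes were transcribed in situ on sequenced MiSeq chips by E. coli RNA polymerase and tracked at 37 °C with a hybridised Cy3 probe. They were exposed to 40 μM to 10 mM glucosamine-6-phosphate in HEPES/KCl/Mg(OAc)2 buffer. kobs came from exponential decay fits of normalised per-tile medians, and kcat and KM from weighted Michaelis–Menten fits.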
# [2] = variants of: B1; test: self-cleavage kobs at 640 uM GlcN6P; higher = faster cleavage; RNA array
# Summary of the method: as §1
# [3] = variants of: B1; test: self-cleavage kobs at 2500 uM GlcN6P; higher = faster cleavage; RNA array
# Summary of the method: as §1
# [4] = variants of: B1; test: self-cleavage kobs at 10000 uM GlcN6P; higher = faster cleavage; RNA array
# Summary of the method: as §1
variant,measurement,setting,value
A12U U47C U65C,self-cleavage kobs at 160 uM GlcN6P,[1],< 1e-05 s⁻¹
C16U A64G U65A C70U,self-cleavage kobs at 160 uM GlcN6P,[1],8.56e-05 ± 2.7e-05 s⁻¹
same,self-cleavage kobs at 640 uM GlcN6P,[2],0.00104 ± 0.00025 s⁻¹
same,self-cleavage kobs at 2500 uM GlcN6P,[3],0.000964 ± 0.00024 s⁻¹
C11A C16A,self-cleavage kobs at 160 uM GlcN6P,[1],< 1e-05 s⁻¹
same,self-cleavage kobs at 10000 uM GlcN6P,[4],2.86e-05 ± 1e-05 s⁻¹
C16G A52C,self-cleavage kobs at 160 uM GlcN6P,[1],< 1e-05 s⁻¹
same,self-cleavage kobs at 2500 uM GlcN6P,[3],< 1e-05 s⁻¹
A12U A15G C16U U31G C71U,self-cleavage kobs at 160 uM GlcN6P,[1],0.000195 ± 6.7e-05 s⁻¹
same,self-cleavage kobs at 640 uM GlcN6P,[2],0.000442 ± 0.00015 s⁻¹
same,self-cleavage kobs at 2500 uM GlcN6P,[3],0.000331 ± 0.0001 s⁻¹
C11A G13A A39G,self-cleavage kobs at 160 uM GlcN6P,[1],< 1e-05 s⁻¹
same,self-cleavage kobs at 640 uM GlcN6P,[2],< 1e-05 s⁻¹
G29A A36G C58A,self-cleavage kobs at 160 uM GlcN6P,[1],< 1e-05 s⁻¹
same,self-cleavage kobs at 640 uM GlcN6P,[2],< 1e-05 s⁻¹
same,self-cleavage kobs at 2500 uM GlcN6P,[3],< 1e-05 s⁻¹
same,self-cleavage kobs at 10000 uM GlcN6P,[4],< 1e-05 s⁻¹
A14C C34A A48C C61G,self-cleavage kobs at 160 uM GlcN6P,[1],< 1e-05 s⁻¹
same,self-cleavage kobs at 2500 uM GlcN6P,[3],< 1e-05 s⁻¹
same,self-cleavage kobs at 10000 uM GlcN6P,[4],< 1e-05 s⁻¹
C11U G51U A53G,self-cleavage kobs at 160 uM GlcN6P,[1],< 1e-05 s⁻¹
C11A A36U U56A C68G C70A,self-cleavage kobs at 160 uM GlcN6P,[1],6.51e-05 ± 2.8e-05 s⁻¹
same,self-cleavage kobs at 640 uM GlcN6P,[2],0.000823 ± 0.0003 s⁻¹
same,self-cleavage kobs at 10000 uM GlcN6P,[4],4.16e-05 ± 1.8e-05 s⁻¹
C11A A14C U31G U65G,self-cleavage kobs at 160 uM GlcN6P,[1],< 1e-05 s⁻¹
same,self-cleavage kobs at 10000 uM GlcN6P,[4],2.62e-05 ± 1.2e-05 s⁻¹
A14U G21A U56G,self-cleavage kobs at 160 uM GlcN6P,[1],0.00134 ± 0.00038 s⁻¹
same,self-cleavage kobs at 640 uM GlcN6P,[2],0.0043 ± 0.0012 s⁻¹
same,self-cleavage kobs at 2500 uM GlcN6P,[3],0.00645 ± 0.0026 s⁻¹
C10U A33G G51A A64C,self-cleavage kobs at 160 uM GlcN6P,[1],< 1e-05 s⁻¹
C16U U31C C68U,self-cleavage kobs at 160 uM GlcN6P,[1],6.38e-05 ± 2.3e-05 s⁻¹
same,self-cleavage kobs at 640 uM GlcN6P,[2],0.000149 ± 3.2e-05 s⁻¹
same,self-cleavage kobs at 2500 uM GlcN6P,[3],0.00018 ± 4e-05 s⁻¹
G29A U46A A53U U56C,self-cleavage kobs at 160 uM GlcN6P,[1],< 1e-05 s⁻¹
same,self-cleavage kobs at 640 uM GlcN6P,[2],< 1e-05 s⁻¹
A15U G60U C61U,self-cleavage kobs at 160 uM GlcN6P,[1],< 1e-05 s⁻¹
A14G C61G,self-cleavage kobs at 160 uM GlcN6P,[1],< 1e-05 s⁻¹
A15G G63A U69G,self-cleavage kobs at 160 uM GlcN6P,[1],4.54e-05 ± 2e-05 s⁻¹
same,self-cleavage kobs at 640 uM GlcN6P,[2],0.000141 ± 4.8e-05 s⁻¹
A12U C34A,self-cleavage kobs at 160 uM GlcN6P,[1],< 1e-05 s⁻¹
same,self-cleavage kobs at 640 uM GlcN6P,[2],< 1e-05 s⁻¹
C10U A20G U55C,self-cleavage kobs at 160 uM GlcN6P,[1],< 1e-05 s⁻¹
C16A G59U C68G,self-cleavage kobs at 160 uM GlcN6P,[1],0.000107 ± 3e-05 s⁻¹
A12C U31G A42C U69G,self-cleavage kobs at 160 uM GlcN6P,[1],0.000164 ± 3.1e-05 s⁻¹
same,self-cleavage kobs at 2500 uM GlcN6P,[3],0.00194 ± 0.00028 s⁻¹
G13A G43C G66A,self-cleavage kobs at 160 uM GlcN6P,[1],< 1e-05 s⁻¹
same,self-cleavage kobs at 2500 uM GlcN6P,[3],< 1e-05 s⁻¹
same,self-cleavage kobs at 10000 uM GlcN6P,[4],< 1e-05 s⁻¹
G13C A14C G51A G66U,self-cleavage kobs at 160 uM GlcN6P,[1],< 1e-05 s⁻¹
same,self-cleavage kobs at 2500 uM GlcN6P,[3],< 1e-05 s⁻¹
G29C A48C G62U,self-cleavage kobs at 160 uM GlcN6P,[1],< 1e-05 s⁻¹
same,self-cleavage kobs at 640 uM GlcN6P,[2],< 1e-05 s⁻¹
same,self-cleavage kobs at 2500 uM GlcN6P,[3],< 1e-05 s⁻¹
A14U G43A G63U C68U,self-cleavage kobs at 160 uM GlcN6P,[1],< 1e-05 s⁻¹
same,self-cleavage kobs at 2500 uM GlcN6P,[3],< 1e-05 s⁻¹
A12G U46G G59U,self-cleavage kobs at 160 uM GlcN6P,[1],< 1e-05 s⁻¹
same,self-cleavage kobs at 640 uM GlcN6P,[2],< 1e-05 s⁻¹
same,self-cleavage kobs at 2500 uM GlcN6P,[3],< 1e-05 s⁻¹
C10U G13U A42U U46G U57A,self-cleavage kobs at 160 uM GlcN6P,[1],< 1e-05 s⁻¹
same,self-cleavage kobs at 640 uM GlcN6P,[2],< 1e-05 s⁻¹
same,self-cleavage kobs at 2500 uM GlcN6P,[3],< 1e-05 s⁻¹
A15G G63A,self-cleavage kobs at 160 uM GlcN6P,[1],< 1e-05 s⁻¹
same,self-cleavage kobs at 640 uM GlcN6P,[2],< 1e-05 s⁻¹
same,self-cleavage kobs at 2500 uM GlcN6P,[3],< 1e-05 s⁻¹
same,self-cleavage kobs at 10000 uM GlcN6P,[4],< 1e-05 s⁻¹
G13U G35C A64U,self-cleavage kobs at 160 uM GlcN6P,[1],< 1e-05 s⁻¹
same,self-cleavage kobs at 640 uM GlcN6P,[2],< 1e-05 s⁻¹
same,self-cleavage kobs at 2500 uM GlcN6P,[3],< 1e-05 s⁻¹
C10U G13C,self-cleavage kobs at 160 uM GlcN6P,[1],< 1e-05 s⁻¹
same,self-cleavage kobs at 10000 uM GlcN6P,[4],< 1e-05 s⁻¹
A15C A36G G38U,self-cleavage kobs at 160 uM GlcN6P,[1],< 1e-05 s⁻¹
same,self-cleavage kobs at 2500 uM GlcN6P,[3],< 1e-05 s⁻¹
G13C C34A G35U,self-cleavage kobs at 160 uM GlcN6P,[1],< 1e-05 s⁻¹
same,self-cleavage kobs at 640 uM GlcN6P,[2],< 1e-05 s⁻¹
same,self-cleavage kobs at 2500 uM GlcN6P,[3],< 1e-05 s⁻¹
C11A A39C U49C,self-cleavage kobs at 160 uM GlcN6P,[1],< 1e-05 s⁻¹
same,self-cleavage kobs at 2500 uM GlcN6P,[3],< 1e-05 s⁻¹
G13C A15U G51U C67U C68G,self-cleavage kobs at 160 uM GlcN6P,[1],6.58e-05 ± 2.5e-05 s⁻¹
G26U U54A,self-cleavage kobs at 160 uM GlcN6P,[1],0.000887 ± 0.00025 s⁻¹
same,self-cleavage kobs at 640 uM GlcN6P,[2],0.00635 ± 0.002 s⁻¹
same,self-cleavage kobs at 2500 uM GlcN6P,[3],0.00265 ± 0.0013 s⁻¹
same,self-cleavage kobs at 10000 uM GlcN6P,[4],0.0333 ± 0.0093 s⁻¹
G13U A15G G35C A52U,self-cleavage kobs at 160 uM GlcN6P,[1],< 1e-05 s⁻¹
same,self-cleavage kobs at 640 uM GlcN6P,[2],< 1e-05 s⁻¹
same,self-cleavage kobs at 2500 uM GlcN6P,[3],< 1e-05 s⁻¹
C11G A14C U31G A33U,self-cleavage kobs at 160 uM GlcN6P,[1],< 1e-05 s⁻¹
same,self-cleavage kobs at 640 uM GlcN6P,[2],< 1e-05 s⁻¹
same,self-cleavage kobs at 2500 uM GlcN6P,[3],< 1e-05 s⁻¹
A15C C50G,self-cleavage kobs at 160 uM GlcN6P,[1],0.000107 ± 3.2e-05 s⁻¹
same,self-cleavage kobs at 2500 uM GlcN6P,[3],0.000205 ± 5.8e-05 s⁻¹
A15C A39U A42C C67G,self-cleavage kobs at 160 uM GlcN6P,[1],< 1e-05 s⁻¹
same,self-cleavage kobs at 640 uM GlcN6P,[2],< 1e-05 s⁻¹
same,self-cleavage kobs at 2500 uM GlcN6P,[3],< 1e-05 s⁻¹
A14C G40U G59U C61U,self-cleavage kobs at 160 uM GlcN6P,[1],< 1e-05 s⁻¹
G29A A36U U55G,self-cleavage kobs at 160 uM GlcN6P,[1],< 1e-05 s⁻¹
same,self-cleavage kobs at 640 uM GlcN6P,[2],< 1e-05 s⁻¹
G29C G32C G37U U45G,self-cleavage kobs at 160 uM GlcN6P,[1],< 1e-05 s⁻¹
same,self-cleavage kobs at 640 uM GlcN6P,[2],< 1e-05 s⁻¹
same,self-cleavage kobs at 2500 uM GlcN6P,[3],< 1e-05 s⁻¹
A14G A33G G60U,self-cleavage kobs at 160 uM GlcN6P,[1],< 1e-05 s⁻¹
same,self-cleavage kobs at 640 uM GlcN6P,[2],< 1e-05 s⁻¹
same,self-cleavage kobs at 2500 uM GlcN6P,[3],< 1e-05 s⁻¹
A15G U31C U45C U49A,self-cleavage kobs at 160 uM GlcN6P,[1],< 1e-05 s⁻¹
same,self-cleavage kobs at 640 uM GlcN6P,[2],< 1e-05 s⁻¹
same,self-cleavage kobs at 2500 uM GlcN6P,[3],< 1e-05 s⁻¹
C16U A52G C71G,self-cleavage kobs at 160 uM GlcN6P,[1],0.000103 ± 3.1e-05 s⁻¹
same,self-cleavage kobs at 640 uM GlcN6P,[2],5.85e-05 ± 1.3e-05 s⁻¹
same,self-cleavage kobs at 2500 uM GlcN6P,[3],0.000175 ± 3.2e-05 s⁻¹
C10G U45C,self-cleavage kobs at 160 uM GlcN6P,[1],< 1e-05 s⁻¹
same,self-cleavage kobs at 2500 uM GlcN6P,[3],< 1e-05 s⁻¹
A15C A39G U56G C61G,self-cleavage kobs at 160 uM GlcN6P,[1],< 1e-05 s⁻¹
same,self-cleavage kobs at 640 uM GlcN6P,[2],< 1e-05 s⁻¹
same,self-cleavage kobs at 2500 uM GlcN6P,[3],< 1e-05 s⁻¹
G26A C70A,self-cleavage kobs at 160 uM GlcN6P,[1],0.000106 ± 2.6e-05 s⁻¹
C16U G40C U47G,self-cleavage kobs at 160 uM GlcN6P,[1],6.77e-05 ± 2.5e-05 s⁻¹
same,self-cleavage kobs at 640 uM GlcN6P,[2],0.000145 ± 2e-05 s⁻¹
same,self-cleavage kobs at 2500 uM GlcN6P,[3],0.000389 ± 9.2e-05 s⁻¹
A12C G63U,self-cleavage kobs at 160 uM GlcN6P,[1],< 1e-05 s⁻¹
same,self-cleavage kobs at 640 uM GlcN6P,[2],< 1e-05 s⁻¹
same,self-cleavage kobs at 10000 uM GlcN6P,[4],< 1e-05 s⁻¹
A14C G29U C50U A52G C58G,self-cleavage kobs at 160 uM GlcN6P,[1],0.000474 ± 0.00018 s⁻¹
same,self-cleavage kobs at 2500 uM GlcN6P,[3],7.98e-05 ± 3.9e-05 s⁻¹
